Data taken from patent publication US20230406922A1 (SIMCERE ZAIMING PHARMACEUTICAL, published 2023).
Positions count from the first letter of the chain named. One block for each binder: values may come before it.

Experiments:
murine CD19 protein = molecular target: T1, murine CD19 protein (murine, UniProt P25918 19-287, limits assumed); experiment: ELISA, murine CD19 coated
T1 construct: also called mouse CD19-his protein
T1 sequence (looked up): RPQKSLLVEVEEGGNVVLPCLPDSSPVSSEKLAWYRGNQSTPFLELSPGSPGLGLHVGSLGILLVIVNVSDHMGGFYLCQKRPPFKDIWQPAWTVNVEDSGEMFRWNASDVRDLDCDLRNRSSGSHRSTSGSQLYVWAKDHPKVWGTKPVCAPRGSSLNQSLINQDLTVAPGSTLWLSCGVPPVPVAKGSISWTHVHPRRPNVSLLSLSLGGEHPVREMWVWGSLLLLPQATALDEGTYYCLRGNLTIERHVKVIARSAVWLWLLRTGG

human CD19-his protein [1] = molecular target: T2, human CD19-his protein (human, UniProt P15391 20-291); experiment: ELISA, human CD19-his coated at 4 ug/mL
T2 construct: also called recombinant human CD19-His; human CD19 protein; not shown: His tag
T2 sequence (looked up): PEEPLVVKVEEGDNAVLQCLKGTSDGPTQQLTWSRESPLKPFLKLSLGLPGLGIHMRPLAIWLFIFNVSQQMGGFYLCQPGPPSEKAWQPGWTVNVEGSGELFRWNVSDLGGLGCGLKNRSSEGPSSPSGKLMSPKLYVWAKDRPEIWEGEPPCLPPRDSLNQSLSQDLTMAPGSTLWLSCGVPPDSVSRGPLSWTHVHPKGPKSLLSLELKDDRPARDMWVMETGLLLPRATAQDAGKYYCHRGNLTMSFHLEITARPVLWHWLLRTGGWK
Experimental: A human CD19-his protein (purchased from ACROBiosystems, Cat. No. CD9-H52H2) was diluted with PBS to make a final concentration of 4 μg/mL, and then added into a 96-well ELISA plate at 100 μL/well. The plate was sealed with a plastic film and incubated at 4° C. overnight, wash twice with PBS the next day, and blocked at room temperature for 2 h by adding a blocking solution [PBS +2% (w/w) BSA]. […] After incubation for 2 h at 37° C., the plate was washed 3 times with PBS. […] After incubation for 1 h at 37° C., the plate was washed 5 times with PBS. A TMB substrate was added at 50 μL/well. After incubation at room temperature for 10 min, a stop solution (1.0 N HCl) was added at 50 μL/well. The OD450 nm values were read on an ELISA microplate reader (Multimode Plate Reader, EnSight, purchased from Perkin Elmer). […] The negative control antibody mIgG1 was an antibody against hen egg lysozyme, anti-hel-mIgG1 (purchased from Biointron, Cat. No. B118301), and the data in the table were OD450 nm values.

[2] = molecular target: T3, human CD19 exon1-3-His protein (human, UniProt P15391 20-186); experiment: ELISA on coated human CD19 exon1-3-His
T3 construct: Made in HEK293E cells, purified on nickel column; not shown: His tag
T3 sequence: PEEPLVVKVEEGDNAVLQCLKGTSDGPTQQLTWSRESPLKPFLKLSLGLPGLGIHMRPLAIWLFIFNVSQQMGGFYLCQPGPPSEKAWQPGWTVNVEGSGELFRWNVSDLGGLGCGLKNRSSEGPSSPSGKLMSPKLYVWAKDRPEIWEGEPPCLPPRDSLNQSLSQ

human CD19-his protein [3] = molecular target: T2, human CD19-his protein; experiment: SPR (Biacore), antibody captured on Protein A chip, human CD19-His as analyte, 1:1 Langmuir model
Experimental: The anti-human CD19 antibody was captured using a Protein A chip (GE Healthcare; 29-127-558). The sample and running buffer was HBS-EP+(10 mM HEPES, 150 mM NaCl, 3 mM EDTA, 0.05% surfactant P20) (GE Healthcare; BR-1006-69). The flow cell was set at 25° C. The sample block was set at 16° C. Both were pretreated with the running buffer. In each cycle, first, the test antibody was captured using the Protein A chip, and then a single concentration of CD19 antigen protein was injected. The association and dissociation processes of the antibody with the antigen protein were recorded, and finally, the chip was regenerated using Glycine pH 1.5 (GE Healthcare; BR-1003-54). The association was determined by injecting different concentrations of recombinant human CD19-His in the solution and maintaining for 240 s, wherein the flow rate was 30 μL/min, and the protein was diluted in a 1:1 dilution ratio from 200 nM (see detailed results for actual concentrations tested) to obtain 5 concentrations in total. The dissociation phase was monitored for up to 600 s and triggered by switching from the sample solution to the running buffer. The surface was regenerated by washing with 10 mM glycine solution (pH 1.5) at a flow rate of 30 μL/min for 30 s. The difference in bulk refractive index was corrected by subtracting the responses obtained from the goat anti-human Fc surface. Blank injections were also subtracted (double reference). To calculate the apparent KD and other kinetic parameters, the Langmuir 1:1 model was used.

binding result (murine CD19 protein): no binding (tested: 100 nM) | OD450 at 0.0001 nM (human CD19-his protein [1]): 0.11 OD450 | OD450 at 0.001 nM (human CD19-his protein [1]): 0.15 OD450 | OD450 at 0.01 nM (human CD19-his protein [1]): 0.38 OD450 | OD450 at 0.10 nM (human CD19-his protein [1]): 1.54 OD450 | OD450 at 1.00 nM (human CD19-his protein [1]): 2.37 OD450 | OD450 at 10.00 nM (human CD19-his protein [1]): 2.38 OD450 | OD450 at 100.00 nM (human CD19-his protein [1]): 2.59 OD450 | binding result [2]: no binding (tested: 100 nM) | Kd (human CD19-his protein [3]): 0.346 nM | koff (human CD19-his protein [3]): 3.36e-05 s⁻¹ | kon (human CD19-his protein [3]): 97200 M⁻¹ s⁻¹
B1: FMC63.26-mIgG1 (antibody, V domains shown)
VH: EVTLKESGPVLVKPTETLTLTCTVSGFSLPDYGVSWIRQPPGKALEWLAVIWGSETTYYNSALKSRLTISKDTSKSQVVLTMTNMDPVDTATYYCAKHYYYGGSYAMDYWGQGTTVTVSS
VL: DIQMTQSPSSLSASVGDRVTITCRASQDISKYLNWYQQKPGGAVKLLIYHTSRLHSGVPSRFSGSGSGTDYTLTISSLQPEDFATYYCQQGNTLPYTFGGGTKVEIKR
notes: Humanized FMC63; also called FMC63-L2H6

binding result (murine CD19 protein): no binding (tested: 100 nM) | OD450 at 0.0001 nM (human CD19-his protein [1]): 0.11 OD450 | OD450 at 0.001 nM (human CD19-his protein [1]): 0.16 OD450 | OD450 at 0.01 nM (human CD19-his protein [1]): 0.39 OD450 | OD450 at 0.10 nM (human CD19-his protein [1]): 1.52 OD450 | OD450 at 1.00 nM (human CD19-his protein [1]): 2.29 OD450 | OD450 at 10.00 nM (human CD19-his protein [1]): 2.32 OD450 | OD450 at 100.00 nM (human CD19-his protein [1]): 2.64 OD450 | binding result [2]: no binding (tested: 100 nM) | Kd (human CD19-his protein [3]): 1.81 nM | koff (human CD19-his protein [3]): 0.000152 s⁻¹ | kon (human CD19-his protein [3]): 84200 M⁻¹ s⁻¹
B2: FMC63.27-mIgG1 (antibody, V domains shown)
VH: B1 VH with F27V, T73N
VL: B1 VL
notes: Humanized FMC63; also called FMC63-L2H7

binding result (murine CD19 protein): no binding (tested: 100 nM) | OD450 at 0.0001 nM (human CD19-his protein [1]): 0.13 OD450 | OD450 at 0.001 nM (human CD19-his protein [1]): 0.17 OD450 | OD450 at 0.01 nM (human CD19-his protein [1]): 0.51 OD450 | OD450 at 0.10 nM (human CD19-his protein [1]): 1.71 OD450 | OD450 at 1.00 nM (human CD19-his protein [1]): 2.44 OD450 | OD450 at 10.00 nM (human CD19-his protein [1]): 2.46 OD450 | OD450 at 100.00 nM (human CD19-his protein [1]): 2.75 OD450 | binding result [2]: no binding (tested: 100 nM) | Kd (human CD19-his protein [3]): 0.0195 nM | koff (human CD19-his protein [3]): 1.8e-06 s⁻¹ | kon (human CD19-his protein [3]): 92400 M⁻¹ s⁻¹
B3: FMC63.25-mIgG1 (antibody, V domains shown)
VH: B1 VH with P30S
VL: B1 VL
notes: Humanized FMC63; also called FMC63-L2H5
